B1: Ab-HER-78 (bispecific antibody, human IgG1, kappa)
heavy: QVQLVQSGAEVKKPGASVKVSCKASGYSFTGYFINWVREAPGQGLEWMGHISSSYATSTYNQKFQGRVTFTVDTSSSTAYMELSSLRSEDTAVYYCVRSGNYEEYAMDYWGQGTLVTVSSASTKGPSVFPLAPSSKSTSGGTAALGCLVKDYFPEPVTVSWNSGALTSGVHTFPAVLQSSGLYSLSSVVTVPSSSLGTQTYICNVNHKPSNTKVDKRVEPKSCDKTHTCPPCPAPELVGGPSVFLLPPKPKDTLMISRTPEVTCVVVDVSHEDPEVKFNWYVDGVEVHNAKTKPPEEQYNSTLRVVSVLTVLHQDWLNGKEYKCKVSNKALPAPIEKTISKAKGQPREPQVYTLPPSRDELTKNQVSLTCLVKGFYPSDIAVEWESNGQPENNYKTTPLVLDSDGSFFLYSKLTVDKSRWQQGNVFSCSVMHEALHNHYTQKSLSLSPGK
light: not shown
B2: HER-10 recombinant (naked) antibody (antibody, human IgG1, kappa, V domains shown)
VH: QVQLQQSGPELVKPGASLKLSCTASGFNIKDTYIHWVKQRPEQGLEWIGRIYPTNGYTRYDPKFQDKATITADTSSNTAYLQVSRLTSEDTAVYYCSRWGGDGFYAMDYWGQGASVTVSS
VL: DIVMTQSHKFMSTSVGDRVSITCKASQDVNTAVAWYQQKPGHSPKLLIYSASFRYTGVPDRFTGSRSGTDFTFTISSVQAEDLAVYYCQQHYTTPPTFGGGTKVEIKR
notes: also called Ab-HER-10
B3: HER-10 vectorized anti-HER2 antibody (antibody, human IgG1, kappa, V domains shown)
VH: B2 VH
VL: B2 VL
notes: also called Ab-HER-10
B4: HER-10 anti-HER2 antibody (Ab-HER-10) (antibody, human IgG1, kappa, V domains shown)
VH: B2 VH
VL: B2 VL

Tests used:
HER2 on SK-BR-3 cells = HER2 on SK-BR-3 cells (human, UniProt P04626 23-1255); assay: cell-based or functional assay
HER2 ECD [1] = target: T1, HER2 ECD (human, UniProt P04626 23-652); assay: SPR (Biacore 8K); antibody captured on anti-human IgG Fc CM5 chip; HER2 ECD 0.625-80 nM as analyte; 1:1 global fit; 25 C
T1 construct: extracellular domain; also called ErbB2; HER2/neu

HER2 ECD [2] = target: T2, HER2 ECD (human, UniProt P04626 23-652); assay: SPR Biacore, binding to Her2 ECD, 1:1 binding model (global fit); HER-10 expressed from Expi293 cells
T2 construct: extracellular domain
Description: (§1) Antibody binding to HER2 was analyzed by Biacore 8K (GE Healthcare) surface plasmon resonance instrument (SPR). All reagents used were from GE Healthcare. HBS-EP+ was used as the sample and running buffer and the interaction was measured at 25° C. […] HER2 ECD (0.625-80 nM, 2-fold dilution) was passed over the captured anti-HER2 antibody at 30 μl/min flow rate, and association and dissociation phases were recorded for 300 and 600 sec, respectively. The sensor chip was regenerated by a 30 sec injection of 3M MgCl₂ at 30 μl/min at the end of each injection cycle. […] The conditioned media was diluted in HBS-EP+ to achieve a capture level that produced a final HER2 binding response of less than 200 RU.
(§2) SK-BR-3 cells were reverse transfected with plasmid DNA using Lipofectamine LTX and PLUS Reagent in fibronectin-coated flasks. The culture supernatant was replaced with serum-free medium (Opti-MEM) one day post-transfection. Three days post-transfection, the culture medium was concentrated using centrifugal concentrators (MilliporeSigma) and analyzed by Biacore SPR binding to Her2 ECD with data fitted to a 1:1 binding model (global fit).

HER2 ECD [3] = target: T2, HER2 ECD; assay: SPR Biacore, binding to Her2 ECD, 1:1 binding model (global fit); HER-10 from concentrated SK-BR-3 culture medium
Description: as §1, §2

| Binder | Emax (SK-BR-3 cell proliferation, CellTiter-Glo 2.0, five days) (HER2 on SK-BR-3 cells) | IC50 (SK-BR-3 cell proliferation, CellTiter-Glo 2.0, five days) (HER2 on SK-BR-3 cells) | Kd (HER2 ECD [1]) | koff (HER2 ECD [1]) | kon (HER2 ECD [1]) | Kd (HER2 ECD [2]) | Kd (HER2 ECD [3]) |
| --- | --- | --- | --- | --- | --- | --- | --- |
| B1 | 56.5% | 0.08 µg/mL | – | – | – | – | – |
| B2 | – | – | 1.2 nM | 0.00021 s⁻¹ | 190000 M⁻¹ s⁻¹ | – | – |
| B3 | – | – | 1.5 nM | 0.00025 s⁻¹ | 170000 M⁻¹ s⁻¹ | – | – |
| B4 | – | – | – | – | – | 1.58 nM | 0.96 nM |
